The values below come from the supplement of paper PMC9170038.

The subject of the data set is MS2 coat protein. As to the kind of experiment: apparent KD of MS2 coat protein; designed switch direction (-1 OFF switch, 1 ON switch): -1; higher = weaker reporter binding. In short, it runs like this: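 The reported apparent KD is a per-design median over clusters, from curve fits of normalised cluster fluorescence. Protein titrations used SNAP-549-labelled MS2 coat protein, doubled from 0.7 or 1.5 nM to 3 µM, in Tris-HCl pH 7.5 buffer with KCl, MgCl2, BSA, DTT, tRNA and Tween-20, with no input, 200 uM small-molecule ligand, or an oligonucleotide input. The RNA switches were transcribed on Illumina chips by stalled E. coli RNA polymerase.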

Setting [1] is: Eterna round: R95, input ligand: microRNA oligo, concentration not stated.
[2] abbreviates: Eterna round: R95, input ligand: FMN 200 uM.
[3] abbreviates: Eterna round: R95, input ligand: none.
[4] abbreviates: input ligand: microRNA oligo, concentration not stated.

Take “UUGAAUUAACAGGAUAUGGGAGUCGAUAGACACCCAGAAGGGUUAACAUGAGGAUCACCCAUGUGUCCUAUCAA [Mod of Eli 23 - Jieux - Exclusion 6] (Eterna round: R97, puzzle: Exclusion 6)”: the “apparent KD of MS2 coat protein” value by setting is: (input ligand: FMN 200 uM) 0.0948 µM; (input ligand: none) 0.0365 µM.

“GAGGAACAUGAGGAUCACCCAUGUGAGGAUAUGCAUAGUGAGGUAGUAGACGUUGAAUGCAGAAGGUACACUGA [JR_Exclu1_Sub078] (puzzle: Exclusion 1)”: the “apparent KD of MS2 coat protein” value under setting [1] was 0.0357 µM.

Consider “AUGAAGUAAGGAUAUUAUCGCGGGCAGAGGCCCAGCUCAUAUGAGAAGGUACAUGAGGAUCACCCAUGUCCUCU [Eternabot (L2) Solution 72] (Eterna round: R97, puzzle: Exclusion 4)”, for which the “apparent KD of MS2 coat protein” value reads like this: (input ligand: FMN 200 uM) 0.0259 µM; (input ligand: none) 0.03 µM.

For the sequence “AAAUACAAGCAAAGAUCCUACAUGAGGAUCACCCAUGUGCUCGUCUUAUAAAGUACUAUCACGAAAGUGAUAGUACA [Sensor 3, v1 - 15] (puzzle: Sensor v3, turn-off variant 1)”, the “apparent KD of MS2 coat protein” value runs as follows: under setting [2], 0.286 µM; under setting [1], 0.0482 µM; under setting [3], 1.11 µM.

“UCUUGUUGUCCGUGAGAAUACAUGAGGAUCACCCAUGUUAGUUUGAUUAUGAUGUGUAAGUUUGUUGCUCGUUUUAU [JR_STOV1_Sub070] (Eterna round: R97, puzzle: Sensor, turn-off variant 1)”: the “apparent KD of MS2 coat protein” value by setting is: (input ligand: FMN 200 uM) 0.0364 µM; (input ligand: none) 0.0413 µM.

“UGUGCGUAUGUGAGGAUAUGCUGGUCCUUGGCUCGGCAGAAGGCACAUGAGGAUCACCCAUGUGGUGUCGUACG [salish99_Bmod_ex4_064] (puzzle: Brourd's mod of Exclusion 4)”: the “apparent KD of MS2 coat protein” value under setting [1] came to 0.0521 µM.

Turning to “CUAUCAAGCAAGGAUAUGCAAAUAAUUAUUUAUGCAGAAGGUGCAACAUGAGGAUCACCCAUGUUUCUGGGUUU [JR_E6_Sub048] (puzzle: Exclusion 6)”, under setting [1], the “apparent KD of MS2 coat protein” value was 0.0449 µM.

For “UAGCUUCCGGUCAGGAUAUACGCUGGCGAAUAGCAGUAGAAGGGACAUGAGGAUCACCCAUGUGGGUUCAAAGA [Zabetima] (puzzle: Brourd's mod of Exclusion 4)”, the “apparent KD of MS2 coat protein” value under setting [2] turned out to be 0.091 µM, the “apparent KD of MS2 coat protein” value under setting [1] was found to be 0.0394 µM and the “apparent KD of MS2 coat protein” value under setting [3] was 0.0442 µM.

For “GGUGAGCUACUAGGAUAUCUAGGCUAUUUACCUAGAGAAGGAGUCGCCUUCCCUCGCGUAGAUACAUGAGGAUCACCCAUGUAU [Eternabot solution 50] (Eterna round: R96, puzzle: Exclusion NG 1)”, the “apparent KD of MS2 coat protein” value by setting is: (input ligand: FMN 200 uM) 0.0169 µM; under setting [4], 0.0141 µM; (input ligand: none) 0.0181 µM.

For the sequence “AGGUGUAGAGGAUAUCGAAUCCUUUACAUGAGGAUCACCCAUGUCCUGGGCACCCAGGACCGAGAAGGCUACACCA [Omei Ex5 D33] (Eterna round: R97, puzzle: Exclusion 5)”, the “apparent KD of MS2 coat protein” value (input ligand: FMN 200 uM) stood at 0.0402 µM and the “apparent KD of MS2 coat protein” value (input ligand: none) turned out to be 2.35 µM.

With “AACUAACAUGUAGGAUAUGCGUGGCGAAGCUAUGCAGAAGGACAUGAGGAUCACCCAUGUUUUAGCGUCUGCGUACAGAUGCAU [JL ENG1 1.41] (Eterna round: R96, puzzle: Exclusion NG 1)”, the “apparent KD of MS2 coat protein” value is 0.146 µM (input ligand: FMN 200 uM), 0.0166 µM under setting [4] and 0.0208 µM (input ligand: none).

In the case of “CACAAAACUGUCAGGAUAUCAGAUGCCGACCCAUAUGAGAAGGGACAUGAGGAUCACCCAUGUACUGGUUCUCA [BmEX4 B.6] (Eterna round: R97, puzzle: Brourd's mod of Exclusion 4)”, the “apparent KD of MS2 coat protein” value is, setting by setting: (input ligand: FMN 200 uM) 0.0139 µM; (input ligand: none) 0.0198 µM.

In the case of “UUAUUAUAUGUAGGAUAUGCAUAUUGUUGUUAUGCAGAAGGACAUGAGGAUCACCCAUGUAUAUUAUUGUUGUAUAUUAUAUAU [Title] (Eterna round: R96, puzzle: Exclusion NG 1)”, the “apparent KD of MS2 coat protein” value by setting is: (input ligand: FMN 200 uM) 0.0374 µM; under setting [4], 0.0175 µM; (input ligand: none) 0.0241 µM.

As for “UCAUAGUGAGGAUAUCGGUCCCUGACAAAUAGUUGGGUUAUUGAGAAGGCACAUGAGGAUCACCCAUGUGUCCG [EX4 C.5] (Eterna round: R97, puzzle: Exclusion 4)”, the “apparent KD of MS2 coat protein” value by setting is: (input ligand: FMN 200 uM) 0.0197 µM; (input ligand: none) 0.0135 µM.

“AGUUGGCGAGGAUAUACAUGAGGAUCACCCAUGUGAAGAAGAAUAGUGAGGAAGAAAAGUAGAAGGCGCUGACA [Mat - Exclusion 3 - Mod of Salish D37] (puzzle: Exclusion 3)”: the “apparent KD of MS2 coat protein” value under setting [1] came to 0.0366 µM.

As to “CAUGUCCAACGAGGAUAUGGGACAGGAGGUGUACCAGAAGGCGUACGGACAUGAGGAUCACCCAUGUCGCGCGGUGCGAUGUGG [15th something] (Eterna round: R96, puzzle: Exclusion NG 1)”, the “apparent KD of MS2 coat protein” value runs as follows: (input ligand: FMN 200 uM) 0.0989 µM; under setting [4], 0.0398 µM; (input ligand: none) 0.0628 µM.

Consider “UAUUAGCAAGCAACUGGGUACAUGAGGAUCACCCAUGUGCUCGUCUUAUAAGGUACUGUGACGAAAUUCACGGUACC [mod--Eli13] (Eterna round: R97, puzzle: Sensor, turn-off variant 1)”, for which the “apparent KD of MS2 coat protein” value (input ligand: FMN 200 uM) is 0.0211 µM and the “apparent KD of MS2 coat protein” value (input ligand: none) stood at 0.0186 µM.

As to “CGUAGCAAAGUGAGGAUAUCUAGAGCGAUAGCUCUAGAGAAGGCACAUGAGGAUCACCCAUGUGGUCAGCUACG [BmEx4/8-A4] (Eterna round: R97, puzzle: Brourd's mod of Exclusion 4)”, the “apparent KD of MS2 coat protein” value runs as follows: (input ligand: FMN 200 uM) 0.393 µM; (input ligand: none) 0.0824 µM.

As to “UAGAUGGGAGGAUAUACAUAGAUACAGAUUCAUGUAGUGCUACAUGAGGAUCACCCAUGUAGAAGGCCCGUCUU [JL-ex2-2.18 Mayanne mod] (puzzle: Exclusion 2)”, under setting [1], the “apparent KD of MS2 coat protein” value worked out at 0.0316 µM.

Regarding “UCUUAUUGCAAGGAUAUGCAAAUUAUUAUUAAUGCAGAAGGUGCUACAUGAGGAUCACCCAUGUUUCCGGGUUU [JR_E6_Sub042] (puzzle: Exclusion 6)”, the “apparent KD of MS2 coat protein” value under setting [1] was 0.0433 µM.

Consider “GAGAAACAUGAGGAUCACCCAUGUGAGGAUAUGAAAAAGAAAAGAAAAGAAAGAAGAAUCAGAAGGCACAAAGC [salish99-ex1_r3_091] (puzzle: Exclusion 1)”, for which the “apparent KD of MS2 coat protein” value is, setting by setting: under setting [2], 0.0231 µM; under setting [1], 0.0324 µM; under setting [3], 0.03 µM.

“CAGUACUGAGGAUAUACAUGAGGAUCACCCAUGUGCCUUAGCUAGGAUACUAGCAUUAGUAGAAGGCAGUACUG [Fiskers Ex 3 828 mod 14] (puzzle: Exclusion 3)”: the “apparent KD of MS2 coat protein” value under setting [1] worked out at 0.0142 µM.

Consider “AUCAUGUAAGGAUAUCUGACAUGUGACUUCGGUCACUGUUCAGAGAAGGUACAUGAGGAUCACCCAUGUAGAAC [Ex4-3: 44] (puzzle: Exclusion 4)”, for which, under setting [1], the “apparent KD of MS2 coat protein” value stood at 0.0596 µM.

With “GUAAAAAAAAAGGAUAUCGAACUUAUUAUUUAACGAGAAGGAUGAACAUGAGGAUCACCCAUGUGGUAUCAUGG [test] (puzzle: Exclusion 6)”, the “apparent KD of MS2 coat protein” value runs as follows: under setting [2], 0.0923 µM; under setting [1], 0.143 µM; under setting [3], 0.213 µM.

With “UUGUACCGGUGAGGAUAUUUUUGAUAGAACUUUAUGAUAUACAUGAGGAUCACCCAUGUUACUUUAAAGAAGGCAUCGGAUUAU [JL JR Sub091 mod 2] (Eterna round: R96, puzzle: Exclusion NG 2)”, the “apparent KD of MS2 coat protein” value under setting [4] turned out to be 0.0143 µM.

On to “AGUAGAUCUACGCUUGCGUGGAUCUGCUAGGCAGGUGUAACAUGAGGAUCACCCAUGUCCUCAUUUGUUCGUCUUAU [JL turnoff v2 99.18] (puzzle: Sensor v3, turn-off variant 2)”, for which the “apparent KD of MS2 coat protein” value was determined as 0.0854 µM under setting [2], 0.313 µM under setting [1] and 0.0283 µM under setting [3].

Turning to “CUUUUGUGAGGAUAUCAGUAGUUAAAAAAUAAAAUUACUACUGAGAAGGCACAUGAGGAUCACCCAUGUUCCUC [salish99_ex4_r3_016] (puzzle: Exclusion 4)”, the “apparent KD of MS2 coat protein” value under setting [1] is 0.0405 µM.

Regarding “AACUAGGCAGGAUAUACAUGAGGAUCACCCAUGUGCCAAUACAAAGGGACUAACAGAGGUAGAAGGGCCUAGAA [ChP 13.04.2015 #2] (puzzle: Exclusion 3)”, the “apparent KD of MS2 coat protein” value runs as follows: under setting [2], 0.155 µM; under setting [1], 0.0368 µM; under setting [3], 0.0343 µM.

As for “UUAUAUAGUGUGAGGAUAUGCUGGUCCUUGGAUCAGCAGAAGGCACAUGAGGAUCACCCAUGUAGUUAAAUUUA [Mat - Exclusion 4 - JL Mod - D17] (puzzle: Brourd's mod of Exclusion 4)”, the “apparent KD of MS2 coat protein” value under setting [1] came to 0.0273 µM.

As to “AGCUGUGGCCGAGGAUAUCUAACAGUCCCAACCGAAAUAUAAUCGGACAUGAGGAUCACCCAUGUAGAGAAGGCGGUCUCAGCA [Eli eng2 - 072] (Eterna round: R96, puzzle: Exclusion NG 2)”, the “apparent KD of MS2 coat protein” value runs as follows: (input ligand: FMN 200 uM) 0.324 µM; under setting [4], 0.157 µM; (input ligand: none) 0.222 µM.

As to “UGGUAACAUGAGGAUCACCCAUGUCAGGAUAUCAGUAAGAAGAGAGGAGAGUAGAAGAUGAGAAGGGACUAUAU [Excluse me! 9 - Jieux - Exclusion 1] (puzzle: Exclusion 1)”, the “apparent KD of MS2 coat protein” value is, setting by setting: under setting [2], 0.0264 µM; under setting [1], 0.0299 µM; under setting [3], 0.0374 µM.

For “GCUUGUCUUUAGGAUAUCGUGAGGCCCUUCAUACGAGAAGGAAAGACAUGAGGAUCACCCAUGUCGGGUAUCAC [Eternabot (L1) Solution 28] (Eterna round: R97, puzzle: Exclusion 6)”, the “apparent KD of MS2 coat protein” value by setting is: (input ligand: FMN 200 uM) 0.0518 µM; (input ligand: none) 0.0208 µM.
